Reference: US20180155426A1 (SANFORD BURNHAM PREBYS MEDICAL DISCOVERY INSTITUTE, published 2018)

Tests used:
[1] = target: T1, huBTLA:huIgG recombinant fusion protein (human, UniProt Q7Z6A9 31-157, limits assumed); test: ELISA screen against huBTLA:huIgG (with purified huIgG as counter-screen)
T1 construct: Produced in 293T cells; Used as the immunogen and as the ELISA screening antigen; not shown: human IgG portion
T1 sequence (looked up): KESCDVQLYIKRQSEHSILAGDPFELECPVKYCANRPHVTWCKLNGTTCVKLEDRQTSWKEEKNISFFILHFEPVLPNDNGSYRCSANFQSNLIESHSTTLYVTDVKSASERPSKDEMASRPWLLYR

[2] = target: T2, human BTLA expressed on cells (human, UniProt Q7Z6A9 31-289); test: flow cytometry on MEF cells expressing huBTLA compared to non-BTLA expressing parental cells
T2 construct: whole, on cells; also called huBTLA; B and T lymphocyte attenuator
Protocol: The resulting hybridoma clones were screened by ELISA against huBTLA:huIgG and purified huIgG to identify those specific for huBTLA. A secondary screen was performed by binding to Beg+/+MEF cells expressing huBTLA and analyzing by flow cytometry compared to the non-BTLA expressing parental cells.

binding result [1]: binds
binding result [2]: binds
B1: anti-human BTLA monoclonal antibody clone 6F4 (antibody, V domains shown)
VH: EVQILETGGGLVKPGGSLRLSCATSGFNFNDYFVNWVRQAPGKGLQWVAQIRNKNYNPATYYAESLEGRVTISRDDSKSSVYLQVSSVRAEDTAIYYCSPISSYYHDGSLHYSDYWGQGVMVTVSS
VL: DIQMTQSPSVLSVSVGDRVTLNCKASHNIKNYLNWYQQKLGEAPKLLIYDTVNLQTGIPSRFSGSGSGTDFTVTISSLQPEDVATYFCFQYHSWPYTFGAGTKLELKR
notes: also called rat anti-hBLTA Mab Clone 6F4; Anti BTLA 6F4
